Earlier results, collected in publication PMC3955120 (Journal of chromatography. B, Analytical technologies in …, 2013).
Where no end group is shown, it is not given here.

Settings: humans, i.v. infusion of kisspeptin-54, RIA, monoexponential decline

## kisspeptin-54 (GTSLSPPPESSGSPQQPGLSAPHSRQIPAPQGAVLVQREKDLPNYNWNSFGLRF-NH2; ends and bridges not checked; UniProt Q15726 68-121, looked up)
  half-life of post steady-state plasma kisspeptin-IR: 27.6 min
